{
  "source": "paper PMC10276003",
  "origin": "cited, not measured here",
  "molecular_target": "GRB2 (Homo sapiens) (UniProt P62993)",
  "data": [
    {"substance": "GRB2 (from UniProt P62993)", "values": [
      {"measurement": "Kd", "value": 700, "unit": "nM"}
    ]}
  ]
}
